In patent US20250145722A1 (TRUEBINDING, published 2025):

B1: 4A11.2B5 (antibody, human IgG4 S228P, kappa, V domains shown)
VH: QVQLQQSGPELVKPGASVKISCKASGYSFTNYYIHWVKQRPGQGLEWIGWIYPGSGNTNYNEKFKGKATLTADTSSSTTNMQLSSLTSEDSAVYYCSTAPGGFDVWGSGTTVTVSS
VL: DIVMTQAAFSNPVTLGTSASISCRSSKSLLHSDGITYLYWYLQRPGQSPQLLIYRMSNLASGVPDRFSGSGSGTDFTLRISRVEAEDVGVYYCAQMLEFPLTFGAGTKLELKR
B2: F846C.1F5 (antibody, human IgG4 S228P, kappa, V domains shown)
VH: QIQLVQSGPELKKPGETVKISCKASGYTFTNYGMNWVKQAPGKGLKWMGWINTYTGEPSYADDFKGRFAFSLETSASTAYLQINNLKNEDMATYFCARWGGYDGDYYAMDYWGQGTSVTVSS
VL: NIMMTQSPSSLAVSAGEKVTMSCKSSQSVLYSSNQKNYLAWYQQKPGQSPKLLIYWASTRESGVPDRFTGSGSGTDFTLTISSVQPEDLAVYYCHQYLSSLTFGAGTKLELKR
notes: also called 846.1F5
B3: F846C.1B2 (antibody, human IgG4 S228P, kappa, V domains shown)
VH: QIQLVQSGPELKKPGETVKISCKASGYTFTNYGMNWVKQAPGKGLKWMGWINTYTGEPSYADDFKGRFAFSLETSASTAYLQINNLKNEDMATYFCARWGGYAGDYYAMDFWGQGTSVTVSS
VL: NIWLTQSPSSLAVSAGEMVTMTCKSSQSVLYSSNQKNYLAWYQQKPGQSPKLLIYWASTRESGVPDRFTGSGSGTDFSLTISSVQAEDLAVYYCHQYLSSLTFGAGTKLELKR
notes: also called 846.1B2
B4: F846C.1H12 (antibody, human IgG4 S228P, kappa, V domains shown)
VH: QIQLVQSGPELKKPGETVKISCKASGYTFTNFGMNWVKQAPGKGLKWMGWINTYTGEPSYADDFKGRFAFSLETSASTAYLQINNLKNEDIATYFCARWGGYAGDYYAMDYWGQGTSVTVSS
VL: NIMMTQSPSSLAVSAGQKVTMSCKSSQSVLYSSSQKNYLAWYQQKPGQSPKLLIYWASTRESGVPDRFSGSGSGTDFTLTISSVQPEDLAVYYCHQYLSSLTFGAGTKLELKR
notes: also called 846.1H12
B5: F846TC.16B5 (antibody, human IgG4 S228P, kappa, V domains shown)
VH: QIQLVQSGPELKKPGETVKISCKASGYTFTNYGMNWVKQAPGKGLKWMGWINTYTGEPAYADDFKGRFAFSLETSASTAYLQINNLKNEDMATYFCARWGGYDGDYYAMDYWGQGTSVTVSS
VL: NIMMTQSPSSLAVSAGEKVTMSCKSSQSVLYSSNQKNYLAWYQQKPGQSPKLLIYWASTRESGVPDRFTGSGSGTDFTLTISSVQAEDLAVYYCHQYLSSLTFGAGTKLELKR
notes: also called 846T.16B5
B6: F846C.1H5 (antibody, human IgG4 S228P, kappa, V domains shown)
VH: EVQLLESGGGLVKPGGSLKLSCAASGFTFSSYAMSWVRQTPEKRLEWVASISSGGDTYYPDSVKGRFTISRDNARNILYLQMSSLRSEDTAMYYCASYGNSLFDYWGQGTTLTVSS
VL: DVVMTQTPLSLPVSLGDQASISCRSSQSLVHNSGNTYLHWYLQRPGQSPNLLIYKVSNRFSGVPDRFSGSGSGTDFTLKISRVAAEDLGVYFCSQSTHVPPTFGGGTKLEIKR
B7: F846C.2H3 (antibody, human IgG4 S228P, kappa, V domains shown)
VH: QIQLVQSGPELKKPGETVKISCKASGYTFTNYGMNWVKQAPGKGLKWMGWINTYTGEPSYADDFKGRFAFSLETSASTAYLQINNLKNEDMATYFCARWGGYDGDYYAMDYWGQGTSVTVSS
VL: NIMMTQSPSSLAVSAGEKVTMSCKSSQSVLYSSNQKNYLAWYQQKPGQSPKLLIYWASTRESGVPDRFTGSGSGTDFTLTISSVQPEDLAVYYCHQYLSSLTFGAGTKLELKR
notes: also called 846.2H3
B8: F846TC.14A2 (antibody, human IgG4 S228P, kappa, V domains shown)
VH: QIQLVQSGPELKKPGETVKISCKASGYTFTNYGMNWVKQAPGKGLKWMGWINTYTGEPTYAGDLKGRFAFSLETSASTAYLQINNLKNEDTATYFCVRYTMDYWGQGTSVTVSS
VL: QAVVTQESALTTSPGETVTLTCRSSTGAVTTSNYANWVQEKPDHLFTGLIGGINNRVPGVPARFSGSLIGDKAALTITGAQTEDEAIYFCALWYSNHWVFGGGTKLTVLR
notes: also called 846T.14A2; 846.14A2
B9: F846TC.14E4 (antibody, human IgG4 S228P, kappa, V domains shown)
VH: QVTLKESGPGILQPSQTLSLTCSFSGFSLSTSGMGVGWIRQPSGKGLEWLAHIWWDDDKYYNTALKSGLTISKDASKNQVFLKIASMDTADTATYYCARNLYDGSYGYYAMDYWGQGTSVTVSS
VL: DIVMTQAAFSNPVTLGTSASISCRSSKSLLHTNGITFLYWYLQKPGQSPQPLIYQMSNLASGVPDRFSSSGSGTDFTLRISRVEAEDVGVYYCAQNLELPWTFGGGTKLEINR
notes: also called 846T.14E4
B10: F846TC.7F10 (antibody, human IgG4 S228P, kappa, V domains shown)
VH: EVQLVESGGDLVKPGGSLKLSCAASGFTFSNYGLSWIRQTPDKRLEWVATISSGGSYTYYPDSVKGRFTISRDSAKNTLYLQMSSLKSEDTAMYYCARHAHYYGVSPYYFDYWGQGTCLTVSS
VL: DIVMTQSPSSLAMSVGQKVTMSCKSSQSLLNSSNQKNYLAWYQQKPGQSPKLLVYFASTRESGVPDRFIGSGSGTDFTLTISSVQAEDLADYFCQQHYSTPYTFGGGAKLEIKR
notes: also called 846T.7F10
B11: F847C.26F5 (antibody, human IgG4 S228P, kappa)
heavy: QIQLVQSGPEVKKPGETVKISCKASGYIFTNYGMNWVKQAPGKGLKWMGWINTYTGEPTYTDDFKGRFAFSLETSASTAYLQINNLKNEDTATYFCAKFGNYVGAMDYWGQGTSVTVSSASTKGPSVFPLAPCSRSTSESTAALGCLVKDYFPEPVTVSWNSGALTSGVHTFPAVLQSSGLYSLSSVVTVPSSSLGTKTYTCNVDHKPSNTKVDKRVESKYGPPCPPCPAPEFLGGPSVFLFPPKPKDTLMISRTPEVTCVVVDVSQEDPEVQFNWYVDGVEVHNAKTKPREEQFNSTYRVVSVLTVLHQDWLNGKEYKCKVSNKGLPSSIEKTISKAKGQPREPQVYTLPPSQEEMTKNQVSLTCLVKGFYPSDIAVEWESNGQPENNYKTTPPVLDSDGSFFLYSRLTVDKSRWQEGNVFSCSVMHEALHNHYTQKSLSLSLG
light: EIKMNQSPSSLSASLGDTITITCHASQNINVWLSWYQQKPGNIPKLLIYKASNLHTGVPSRFSGSGSGTGFTLTISSLQPEDIATYYCQQGQSYPYTFGGGTKLELKRTVAAPSVFIFPPSDEQLKSGTASVVCLLNNFYPREAKVQWKVDNALQSGNSQESVTEQDSKDSTYSLSSTLTLSKADYEKHKVYACEVTHQGLSSPVTKSFNRGEC
notes: also called 847.26F5
B12: F847C.4B10 (antibody, human IgG4 S228P, kappa, V domains shown)
VH: EVQLVETGGGLVKPGGSLKLSCAASGFTFSSYAMSWVRQTPEKRLEWVASISSGGSTYYPDSVKGRFTISRDNARNILYLQMSSLRSEDTAMYYCTRFTTVVEMDYWGQGTSVTVSS
VL: QAVVTQESALTTSPGETVTLTCRSSTGAVTTSNYANWVQEKPDHLFTGLIGGTNNRAPGVPARFSGSLIGDKAALTITGAQTEDEAIYFCALWYSNHLVFGGGTKLTVLR
B13: F849C.8D10 (antibody, human IgG4 S228P, kappa, V domains shown)
VH: QVQLQQTGAELVKPGASVKLSCKASGYTFTSYWINWVKQRPGQGLEWIGNIYPGSSSIYYSEKFKSKATLTVDTSSSTAYMQLSSLTSDDSAVYYCARWGYWGQGTTLTVSS
VL: DVLMTQTPLSLPVSLGDQASISCRSSQDIVHSSGNTYLEWYLQKPGQSLKLLIYKVSNRFSGVPDRFSASGSGTDFTLKISRVEAEDLGVYYCFQGSHVPPTFGSGTKLEIKR
notes: also called 849.8D10
B14: recombinant human TGF-beta RI/ALK-5 Fc chimera protein (R&D Systems, 3025-BR) (Fc fusion, UniProt P36897 24-125, looked up, not shown: a dimerising Fc or GST)
chain: AAALLPGATALQCFCHLCTKDNFTCVTDGLCFVSVTETTDKVIHNSMCIAEIDLIPRDRPFVCAPSSKTGSVTTTYCCNQDHCNKIELPTTVKSSPGLGPVE
notes: also called TGFβ RI; TGFBR1
B15: recombinant human TGF-beta sRII/Fc (R&D Systems, 341-BR) (Fc fusion, UniProt P37173 24-159, looked up, not shown: a dimerising Fc or GST)
chain: IPPHVQKSVNNDMIVTDNNGAVKFPQLCKFCDVRFSTCDNQKSCMSNCSITSICEKPQEVCVAVWRKNDENITLETVCHDPKLPYHDFILEDAASPKCIMKEKKKPGETFFMCSCSSDECNDNIIFSEEYNTSNPD
notes: also called TGFβ R2; TGFBR2
B16: 23H9.2E4 (antibody, V domains shown)
VH: QIQLVQSGPELKKPGETVKISCKASGYTFTTYAMSWVKQAPGKGLKWMGWINTYSGVPTYADDLKGRFAFSLETSASTAYLQINNLKNEDTATYFCARGPYAMDYWGQGTSVTVSS
VL: DIQMTQTTSSLSASLGDRVTISCSASQGINNYLNWYQQKPDGTVKLLIYYASSLHSGVPSRFSGSGSGTDYSLTISNLEPEDIATYYCQQYSQVPYTFGSGTKLEIK
B17: F849C.8H3 (antibody, human IgG4 S228P, kappa, V domains shown)
VH: QVTLKESGPGILQPSQTLSLTCSFSGFSLSTFGMGVGWIRQPSGKGLEWLAHIWWDDDKHYNPALKSRLTISKDTSKNQVFLRIANVDTADNATYYCARIDYGDYVGFAYWGQGTLVTVSA
VL: DIGMRQAAFSNPVTLGTSASISCRSSKSLLYSNGITYLYWFLQKPGQSPQLLIYQMSNLASGVPDRFSSSGSGTDFTLRISRVEADDVGVYYCAQNLELPWTFGGGTKLEIKR

What was measured:
[1] = biological target: T1, human Galectin-3 (Gal3), full-length recombinant (human, UniProt P17931 2-250); assay: cell-based or functional assay
[2] = biological target: T1, human Galectin-3 (Gal3), full-length …; assay: blocking ELISA, Gal3 coated, TREM2-His
Description: The plate was incubated for an hour at room temperature with gentle rocking. Thereafter, the plate was washed three times with PBST. Anti-6× His tag antibody-HRP (Abcam, ab1269) was then added to the wells at 1:3000 dilution in 2% BSA in PBST. The plate was incubated at room temperature for an hour with gentle rocking and then washed three times with PBST.

[3] = biological target: T1, human Galectin-3 (Gal3), full-length …; assay: blocking ELISA, Gal3 coated, biotin-TLR4
[4] = biological target: T1, human Galectin-3 (Gal3), full-length …; assay: blocking ELISA, Gal3 coated, biotin-APP695
[5] = biological target: T1, human Galectin-3 (Gal3), full-length …; assay: blocking ELISA, Gal3 coated, biotin-Tau aggregates
Description: The plate was incubated for an hour at room temperature with gentle rocking. Thereafter, the plate was washed three times with PBST. […] The plate was incubated at room temperature for an hour with gentle rocking and then washed three times with PBST.

[6] = biological target: T1, human Galectin-3 (Gal3), full-length …; assay: blocking ELISA, Gal3 coated, biotin-Abeta42 peptide
[7] = biological target: T1, human Galectin-3 (Gal3), full-length …; assay: blocking ELISA, Gal3 coated, biotin-Abeta42 oligomer
[8] = biological target: T1, human Galectin-3 (Gal3), full-length …; assay: not stated. Exponent is printed without a minus sign; value taken as a negative power of ten because the column is a KD in M
[9] = biological target: T1, human Galectin-3 (Gal3), full-length …; assay: SPR (Carterra LSA, HC30M chip with Protein A/G, receptor-Fc captured, Gal3 0-128 nM as analyte, 25 °C)
Description: Briefly, kinetics experiment was performed on Caterra LSA at 25° C. A HC30M chip was immobilized with recombinant Protein A/G.
The complex was allowed to associate and dissociate for 300 s and 240 s, respectively. Eight cycles of kinetics were done sequentially for the dilution series.

T1 sequence (P17931 2-250 limits assumed): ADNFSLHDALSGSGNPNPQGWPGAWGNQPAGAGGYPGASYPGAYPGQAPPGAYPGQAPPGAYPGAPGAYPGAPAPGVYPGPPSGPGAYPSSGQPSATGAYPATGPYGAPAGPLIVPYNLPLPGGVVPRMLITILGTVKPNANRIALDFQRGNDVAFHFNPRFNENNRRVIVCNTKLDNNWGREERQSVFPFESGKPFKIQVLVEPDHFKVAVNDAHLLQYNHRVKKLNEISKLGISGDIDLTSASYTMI

Row | Binder | % blocking of Gal3-TREM2 binding [2] [%] | % blocking of Gal3-TLR4 binding [3] [%] | % blocking of Gal3-APP695 binding [4] [%] | % blocking of Gal3-Abeta42 peptide binding [6] [%] | Kd [8] [nM] | also measured
1 | B1 | – | – | – | – | – | decrease in TGFβ induction of ColA1 mRNA in LX2 cells (qRT-PCR) [1]: 58%
2 | B2 | > 90 | > 90 | > 90 | > 90 | 1.63 | % blocking of Gal3-Tau aggregates binding [5]: > 90%; % blocking of Gal3-Abeta42 oligomer binding [7]: > 90%
3 | B3 | > 90 | > 90 | > 90 | > 90 | 5.74 | % blocking of Gal3-Tau aggregates binding [5]: > 90%
4 | B4 | – | – | > 90 | – | 0.622 | –
5 | B5 | > 90 | > 90 | > 90 | > 90 | 0.927 | –
6 | B6 | – | – | – | – | 3.41 | –
7 | B7 | > 90 | > 90 | > 90 | > 90 | 1.72 | –
8 | B8 | – | > 90 | > 90 | > 90 | 3.26 | % blocking of Gal3-Abeta42 oligomer binding [7]: > 90%
9 | B9 | > 90 | > 90 | > 90 | > 90 | 0.556 | % blocking of Gal3-Abeta42 oligomer binding [7]: > 90%
10 | B10 | – | – | – | – | 1.4 | –
11 | B11 | < 47 | – | 87 | – | 20.9 | –
12 | B12 | – | – | > 83 | – | 21.5 | % blocking of Gal3-Abeta42 oligomer binding [7]: < 26%
13 | B13 | > 90 | > 90 | > 90 | > 90 | 3.75 | –
14 | B14 | – | – | – | – | – | Kd [9]: 314 nM; koff [9]: 0.0351 s⁻¹; kon [9]: 112000 M⁻¹ s⁻¹
15 | B15 | – | – | – | – | – | Kd [9]: 725 nM; koff [9]: 0.0837 s⁻¹; kon [9]: 116000 M⁻¹ s⁻¹
16 | B16 | > 90 | > 90 | – | < 46 | – | % blocking of Gal3-Abeta42 oligomer binding [7]: < 26%
17 | B17 | – | – | > 90 | – | – | –
